In article PMC11272584 (Nature Metabolism, 2024):

T1: GIPR A294V (Homo sapiens, UniProt P48546, A294V)
T1 construct: host or cells: HEK293
T1 sequence (P48546 22-466 A294V): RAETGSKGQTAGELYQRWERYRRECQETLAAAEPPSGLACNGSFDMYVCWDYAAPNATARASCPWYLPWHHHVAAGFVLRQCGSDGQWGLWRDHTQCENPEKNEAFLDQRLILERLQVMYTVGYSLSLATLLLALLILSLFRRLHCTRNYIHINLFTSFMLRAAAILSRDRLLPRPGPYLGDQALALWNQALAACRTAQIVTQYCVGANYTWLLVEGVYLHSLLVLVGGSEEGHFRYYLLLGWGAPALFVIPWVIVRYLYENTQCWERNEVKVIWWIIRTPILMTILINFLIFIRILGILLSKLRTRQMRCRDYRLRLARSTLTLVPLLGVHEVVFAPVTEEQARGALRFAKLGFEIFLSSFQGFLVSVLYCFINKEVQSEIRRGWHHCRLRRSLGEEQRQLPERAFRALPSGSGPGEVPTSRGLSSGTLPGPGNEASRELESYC

T2: GIPR I299V (Homo sapiens, UniProt P48546, I299V)
T2 construct: host or cells: HEK293
T2 sequence (P48546 22-466 I299V): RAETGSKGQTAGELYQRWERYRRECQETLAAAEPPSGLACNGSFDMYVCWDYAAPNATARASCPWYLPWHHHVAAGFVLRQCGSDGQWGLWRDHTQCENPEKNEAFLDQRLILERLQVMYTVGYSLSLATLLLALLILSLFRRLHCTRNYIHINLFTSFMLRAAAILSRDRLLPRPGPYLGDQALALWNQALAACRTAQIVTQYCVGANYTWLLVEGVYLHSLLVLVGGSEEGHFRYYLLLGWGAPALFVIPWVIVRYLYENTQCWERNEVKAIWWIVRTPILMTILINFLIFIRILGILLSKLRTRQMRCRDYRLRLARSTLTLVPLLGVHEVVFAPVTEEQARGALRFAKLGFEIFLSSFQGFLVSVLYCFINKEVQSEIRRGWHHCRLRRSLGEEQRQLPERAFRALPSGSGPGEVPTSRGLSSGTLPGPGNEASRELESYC

T3: GIPR R300W (Homo sapiens, UniProt P48546, R300W)
T3 construct: host or cells: HEK293
T3 sequence (P48546 22-466 R300W): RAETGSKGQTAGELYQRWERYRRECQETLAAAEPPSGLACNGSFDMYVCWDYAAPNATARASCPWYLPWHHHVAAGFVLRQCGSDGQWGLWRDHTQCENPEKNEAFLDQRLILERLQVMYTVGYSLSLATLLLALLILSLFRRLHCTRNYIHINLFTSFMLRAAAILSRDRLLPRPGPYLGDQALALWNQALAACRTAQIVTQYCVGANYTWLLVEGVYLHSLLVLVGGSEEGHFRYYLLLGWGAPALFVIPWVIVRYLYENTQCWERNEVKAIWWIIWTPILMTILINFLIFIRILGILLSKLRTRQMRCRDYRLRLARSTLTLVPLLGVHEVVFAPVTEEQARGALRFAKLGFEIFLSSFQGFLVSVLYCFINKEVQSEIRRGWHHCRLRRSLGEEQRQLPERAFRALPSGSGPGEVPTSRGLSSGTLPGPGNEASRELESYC


Columns and labels:
GIPR A294V = biological target: T1, GIPR A294V; experiment: cAMP accumulation; format: cell-based
Method: (§1) HEK293 (CRL-1573, American Type Culture Collection) and β-arrestin 1/2 knockout cells, generated from HEK293A[48], were used for cAMP measurement, homologues competition binding and β-arrestin 2 recruitment. […] Both cell lines were cultured at 5% CO2 at 37 °C in Roswell Park Memorial Institute GlutaMAX-I supplemented with 10% fetal bovine serum, 180 units ml^−1 penicillin, and 45 g ml^−1 streptomycin. For the cAMP and binding experiments, cells were transfected with the calcium phosphate precipitation method[49].
(§2) cAMP production was measured with the DiscoverX Hithunter cAMP assay according to the manufacturer’s protocol (DiscoverX). […] On the day of the assay, the cells were washed twice with HEPES-buffered saline (HBS) and incubated with HBS and 1 mM 3-isobutyl-1-methylxanthine for 30 min at 37 °C. […] After the incubation, the assay medium was removed from the plate and the cells were washed with 30 µl PBS and treated with 40 µl enzyme donor–lysis buffer–chemiluminescent reagents and 10 µl cAMP antibodies for 60 min before 40 µl enzyme acceptor solution added. After a 3-h incubation on a shaking table in the dark, the cAMP accumulation was measured based on luminescence with a Perkin Elmer EnVision 2104 Multilabel Microplate Reader. […]

GIPR variants (groups) [1] = experiment: cAMP accumulation; format: cell-based, human; settings: for In vitro groups (cAMP): cAMP part of the in vitro group; for percentage_camp: cAMP production compared with WT; for Beta, cAMP: in vitro cAMP production per GIPR variant
GIPR variants (groups) [2] = experiment: β-arrestin 2 recruitment (BRET); settings: for In vitro groups (β-arrestin): arr part of the in vitro group; for Beta, Barr: in vitro β-arrestin recruitment per GIPR variant;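 on all read-outs here: BRET readout of β-arrestin 2 recruitment in transiently transfected HEK293 cells expressing WT GIPR or a GIPR variant plus GPCR kinase 2, Rluc8 donor and citrine acceptor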
GIPR I299V = biological target: T2, GIPR I299V; experiment: cAMP accumulation; format: cell-based
Method: as §1, §2

GIPR R300W = biological target: T3, GIPR R300W; experiment: cAMP accumulation; format: cell-based
Method: as §1, §2

Molecule | Efficacy at 100pmol (cAMP) (GIPR A294V) | In vitro groups (cAMP) (GIPR variants (groups) [1]) | percentage_camp (GIPR variants (groups) [1]) [% cAMP] | Beta, cAMP (GIPR variants (groups) [1]) | In vitro groups (β-arrestin) (GIPR variants (groups) [2]) | Beta, Barr (GIPR variants (groups) [2]) | Efficacy at 100pmol (cAMP) (GIPR I299V) | Efficacy at 100pmol (cAMP) (GIPR R300W)
A294V (protein) RAETGSKGQTAGELYQRWERYRRECQETLAAAEPPSGLACNGSFDMYVCWDYAAPNATARASCPWYLPWHHHVAAGFVLRQCGSDGQWGLWRDHTQCENPEKNEAFLDQRLILERLQVMYTVGYSLSLATLLLALLILSLFRRLHCTRNYIHINLFTSFMLRAAAILSRDRLLPRPGPYLGDQALALWNQALAACRTAQIVTQYCVGANYTWLLVEGVYLHSLLVLVGGSEEGHFRYYLLLGWGAPALFVIPWVIVRYLYENTQCWERNEVKVIWWIIRTPILMTILINFLIFIRILGILLSKLRTRQMRCRDYRLRLARSTLTLVPLLGVHEVVFAPVTEEQARGALRFAKLGFEIFLSSFQGFLVSVLYCFINKEVQSEIRRGWHHCRLRRSLGEEQRQLPERAFRALPSGSGPGEVPTSRGLSSGTLPGPGNEASRELESYC | 0.6171 | WT-like_camp | >50 | 0.6171 | WT-like_arr | 0.6328 | – | –
I299V (protein) RAETGSKGQTAGELYQRWERYRRECQETLAAAEPPSGLACNGSFDMYVCWDYAAPNATARASCPWYLPWHHHVAAGFVLRQCGSDGQWGLWRDHTQCENPEKNEAFLDQRLILERLQVMYTVGYSLSLATLLLALLILSLFRRLHCTRNYIHINLFTSFMLRAAAILSRDRLLPRPGPYLGDQALALWNQALAACRTAQIVTQYCVGANYTWLLVEGVYLHSLLVLVGGSEEGHFRYYLLLGWGAPALFVIPWVIVRYLYENTQCWERNEVKAIWWIVRTPILMTILINFLIFIRILGILLSKLRTRQMRCRDYRLRLARSTLTLVPLLGVHEVVFAPVTEEQARGALRFAKLGFEIFLSSFQGFLVSVLYCFINKEVQSEIRRGWHHCRLRRSLGEEQRQLPERAFRALPSGSGPGEVPTSRGLSSGTLPGPGNEASRELESYC | – | WT-like_camp | >50 | 1.005 | WT-like_arr | 0.7578 | 1.005 | –
R300W (protein) RAETGSKGQTAGELYQRWERYRRECQETLAAAEPPSGLACNGSFDMYVCWDYAAPNATARASCPWYLPWHHHVAAGFVLRQCGSDGQWGLWRDHTQCENPEKNEAFLDQRLILERLQVMYTVGYSLSLATLLLALLILSLFRRLHCTRNYIHINLFTSFMLRAAAILSRDRLLPRPGPYLGDQALALWNQALAACRTAQIVTQYCVGANYTWLLVEGVYLHSLLVLVGGSEEGHFRYYLLLGWGAPALFVIPWVIVRYLYENTQCWERNEVKAIWWIIWTPILMTILINFLIFIRILGILLSKLRTRQMRCRDYRLRLARSTLTLVPLLGVHEVVFAPVTEEQARGALRFAKLGFEIFLSSFQGFLVSVLYCFINKEVQSEIRRGWHHCRLRRSLGEEQRQLPERAFRALPSGSGPGEVPTSRGLSSGTLPGPGNEASRELESYC | – | LoF_camp | <50 | 0 | LoF_arr | 0 | – | 0.0005276
